No end group written: not given here. *: point of attachment. 5FAM = O=C1OC2(c3ccc(O)cc3Oc3cc(O)ccc32)c2ccc(C(=O)*)cc21; TQ2 = quencher
Tests used:
[1] = target: T1, MMP14 in the MDA-MB-231-derived extracellular vesicles (Homo sapiens, UniProt P50281); assay: Digital detection of MDA-MB-231-derived extracellular vesicles through MMP14 activity in wells (microcompartments); type: biochemical; conditions: for Extracellular vesicle concentration: at a concentration of x1, 50 fL; for Expected value λ / Number of positives / Positive ratio: Example 38, EV 2.5 μg/mL, reporter 5 μM, 30° C.
T1 construct: in terms of intact MMP14 with a molecular weight of 70 kDa
Description: The concentration of the solution is 6.7 μg/mL.
100 μL of the MMP14 detection solution was added to 100 μL of the sample to provide a reaction solution for wells. […] 100 μL of 200 μL of the prepared reaction solution for wells was used in the measurement of MMP14 activity with a 96-well plate.
Next, the wells were filled with the reaction solution by leaving the well array 200 to stand under reduced pressure to degas the space 205. After that, the space 205 was fed with hydrophobic solvents to be sealed. Fluorinated oils AsahiKlin AE-3000 (manufactured by AGC Inc.) and Fomblin Y-25 (manufactured by Solvay S.A.) were used as the hydrophobic solvents. A fluorinated oil Simoa (trademark) SR-X Sealing Oil: 102767 (manufactured by Quanterix Corporation) was further used as another hydrophobic solvent.
Well diameter: 4.25 μm Well depth: 3.25 μm Well capacity: 50 fL Number of wells in array: 239,000 Array range: 3 mm×4 mm
The concentration of the solution is 20 μg/mL. […] The concentration of the solution was set to x1, and 10-fold serial dilution was performed to prepare standard samples with five concentrations.
Next, the wells were filled with the reaction solution by leaving the well array 200 to stand under reduced pressure to degas the space 205. After that, the space 205 was fed with hydrophobic solvents to be sealed.
The concentration of the solution is 20 μg/mL. […] The concentration of the solution was set to x1, and 3-fold serial dilution was performed to prepare standard samples with three concentrations.
The concentration of the solution is 20 μg/mL. […] The concentration of the solution was set to x1, and 2-fold serial dilution was performed to prepare standard samples with four concentrations.
The concentration of the solution is 5 μg/mL.
50 μL of the MMP14 detection solution was added to 50 μL of the sample to provide a reaction solution for wells.
50 μL of each of the MMP14 detection solutions was added to 50 μL of the sample to provide a reaction solution for wells.
The concentration of the solution is 6.7 µg/mL.

[2] = target: T1, MMP14 in the MDA-MB-231-derived extracellular vesicles; assay: Evaluation of MMP14 activity of MDA-MB-231-derived extracellular vesicles with 96-well plate; type: biochemical
Description: A relative fluorescence unit difference ΔRFU was calculated by subtracting the measured value of the sample for BG measurement from the measured value of each of the samples.
The concentration of the solution is 41.7 μg/mL. The concentration of the solution was set to x1, and 2-fold serial dilution was performed to prepare standard samples with six concentrations.
50 μL of the MMP14 detection solution was added to 50 μL of each of the samples, a reaction was performed at 37° C., and MMP14 activity was evaluated.
The concentration of the solution is 10 μg/mL.
50 μL of each of the MMP14 detection solutions was added to 50 μL of each of the samples, a reaction was performed at 37° C., and MMP14 activity was evaluated. […]
The concentration of the solution is 20 μg/mL. The concentration of the solution was set to x1, and 3-fold serial dilution was performed to prepare standard samples with three concentrations.
The concentration of the solution is 8 μg/mL.
50 μL of each of the MMP14 detection solutions was added to 50 μL of the sample, a reaction was performed at 37° C., and MMP14 activity was evaluated. […]
50 μL of the MMP14 detection solution was added to 50 μL of each of the samples, a reaction was performed at 30° C., and MMP14 activity was evaluated.
The MMP14 activity of the extracellular vesicles was evaluated with a 96-well plate (137101). A fluorescence intensity was measured with a fluorescence plate reader (Synergy) at 30° C. every 5 minutes for 2 hours. For measurement wavelengths, an excitation wavelength of 545±20 nm and a fluorescence wavelength of 588±20 nm were used. A relative fluorescence unit difference (ΔRFU) was calculated by subtracting the measured value of the sample for BG measurement from the measured value of each of the samples.
50 μL of each of the MMP14 detection solutions was added to 50 μL of each of the samples, a reaction was performed at 30° C., and MMP14 activity was evaluated.

[3] = Example 37, EV 5 μg/mL, reporter 5 μM, buffer (4)
[4] = MP, 1.25 μM with 5 μM Custom #2TF3
[5] = MP, 2.5 μM with 2.5 μM Custom #2TF3

Row | Substance | Expected value λ (×1) ([1]; Example 38, 4 hr) | Extracellular vesicle concentration ([1]; Example 38, 4 hr) [mL⁻¹] | Expected value λ (×1) ([1]; Example 38, 24 hr) | Extracellular vesicle concentration ([1]; Example 38, 24 hr) [mL⁻¹] | Expected value λ ([1]; 4 hr) | Number of positives ([1]; 4 hr) | Positive ratio ([1]; 4 hr) | Expected value λ ([1]; 24 hr) | Number of positives ([1]; 24 hr) | Positive ratio ([1]; 24 hr) | Fluorescence change after 2 hours of reaction at 30° C. [2, 3] | Fluorescence change after 2 hours of reaction at 30° C. [2, 4] | Fluorescence change after 2 hours of reaction at 30° C. [2, 5]
1 | TQ2-WPHGSLQAAK(5-FAM) (TQ2-WPHGSLQAAK(5FAM)) [Custom #16] | 0.06766 | 1.353e+09 | 0.3923 | 7.845e+09 | 0.01692 | 471 | 0.01677 | 0.09807 | 2,623 | 0.09341 | 4,424 ΔRFU | 852 ΔRFU | 1,489 ΔRFU
2 | TQ2-YPPRPLLARK(5-FAM) (TQ2-YPPRPLLARK(5FAM)) [Custom #15] | 0.4993 | 9.986e+09 | 1.145 | 2.289e+10 | 0.1248 | 3,295 | 0.1173 | 0.2862 | 6,988 | 0.2489 | 16,774 ΔRFU | 9,131 ΔRFU | 10,890 ΔRFU
3 | TQ2-DLPAGLQARK(5-FAM) (TQ2-DLPAGLQARK(5FAM)) [Custom #14] | 0.9841 | 1.968e+10 | 1.5709 | 3.142e+10 | 0.246 | 6,120 | 0.2181 | 0.3927 | 9,120 | 0.3248 | 34,878 ΔRFU | 9,504 ΔRFU | 14,104 ΔRFU
4 | TQ2-FMPLGLRGIK(5-FAM) (TQ2-FMPLGLRGIK(5FAM)) [Custom #12] | 0.5189 | 1.0377e+10 | 1.232 | 2.464e+10 | 0.1297 | 3,416 | 0.1216 | 0.308 | 7,423 | 0.2651 | 32,801 ΔRFU | 13,343 ΔRFU | 19,102 ΔRFU

Source: US20250290928A1, “METHOD, KIT AND DEVICE FOR DETECTING EXTRACELLULAR VESICLES” (priority 2022, published 2025)
